Among the data in patent US20120283172A1 are EC50 of STAT5 phosphorylation in IM-9 cells (MFI by intracellular phospho-STAT5 staining) and EC50, STAT5 phosphorylation in IM-9 cells (intracellular phospho-STAT5 staining, FACS, MFI PE) values, retold here.

The target of the first assay is human growth hormone receptor on IM-9 cells (human) (UniProt P10912). The experiment in a line: cell-based or functional assay.
UniProt P10912, sequence (P10912 19-638): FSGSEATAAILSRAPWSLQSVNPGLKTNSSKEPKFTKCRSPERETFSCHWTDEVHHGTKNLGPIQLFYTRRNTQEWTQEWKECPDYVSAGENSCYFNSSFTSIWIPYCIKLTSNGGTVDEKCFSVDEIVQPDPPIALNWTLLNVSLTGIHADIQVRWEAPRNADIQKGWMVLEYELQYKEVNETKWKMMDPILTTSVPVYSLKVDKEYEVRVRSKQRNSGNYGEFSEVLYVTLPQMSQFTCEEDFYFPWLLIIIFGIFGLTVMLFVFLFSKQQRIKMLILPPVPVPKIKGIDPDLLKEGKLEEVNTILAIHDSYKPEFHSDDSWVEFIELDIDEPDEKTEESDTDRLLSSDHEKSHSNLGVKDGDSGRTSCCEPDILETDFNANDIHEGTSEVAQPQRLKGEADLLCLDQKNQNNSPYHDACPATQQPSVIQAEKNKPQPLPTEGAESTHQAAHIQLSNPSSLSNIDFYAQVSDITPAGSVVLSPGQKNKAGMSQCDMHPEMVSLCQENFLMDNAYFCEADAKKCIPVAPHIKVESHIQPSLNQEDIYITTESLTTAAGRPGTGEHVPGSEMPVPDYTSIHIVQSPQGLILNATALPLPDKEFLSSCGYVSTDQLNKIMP
The substance “hGH K140pAF (from UniProt P01241 27-217) (ligand)” had an EC50 of STAT5 phosphorylation in IM-9 cells (MFI by intracellular phospho-STAT5 staining) of 2.7 nM. Same read-out and setting: the figure for “hGH Q91pAF (from UniProt P01241 27-217) (ligand)” is 2 nM. For the substance “hGH T135pAF (from UniProt P01241 27-217) (ligand)”, the EC50 of STAT5 phosphorylation in IM-9 cells (MFI by intracellular phospho-STAT5 staining) amounted to 0.9 nM.

In turn, “hGH F92pAF (from UniProt P01241 27-217) (ligand)” came in with an EC50 of STAT5 phosphorylation in IM-9 cells (MFI by intracellular phospho-STAT5 staining) of 0.8 nM.

The substance “hGH A155pAF (from UniProt P01241 27-217) (ligand)” displayed an EC50 of STAT5 phosphorylation in IM-9 cells (MFI by intracellular phospho-STAT5 staining) of 1.3 nM.

The substance “His-tagged hGH Y143pAF (from UniProt P01241 27-217) (ligand)” gave an EC50 of STAT5 phosphorylation in IM-9 cells (MFI by intracellular phospho-STAT5 staining) of 0.8 nM.

Regarding “hGH S95pAF (from UniProt P01241 27-217) (ligand)”, the EC50 of STAT5 phosphorylation in IM-9 cells (MFI by intracellular phospho-STAT5 staining) came to 16.7 nM. With “rat growth hormone, wild type (from UniProt P01244 27-216) (ligand)”, the EC50 of STAT5 phosphorylation in IM-9 cells (MFI by intracellular phospho-STAT5 staining) is above 200000 nM.

For the substance “hGH P133pAF (from UniProt P01241 27-217) (ligand)”, the EC50 of STAT5 phosphorylation in IM-9 cells (MFI by intracellular phospho-STAT5 staining) is 1 nM. “hGH G131pAF (from UniProt P01241 27-217) (ligand)”: the EC50 of STAT5 phosphorylation in IM-9 cells (MFI by intracellular phospho-STAT5 staining) came to 0.8 nM. The same measure, in the same setting: the value for “hGH Y103pAF (from UniProt P01241 27-217) (ligand)” was 130000 nM; that for “hGH G136pAF (from UniProt P01241 27-217) (ligand)” was 1.4 nM; that for “hGH Y111pAF (from UniProt P01241 27-217) (ligand)” was 1 nM. On the same count and under the same terms, the value for “hGH F139pAF (from UniProt P01241 27-217) (ligand)” was 3.3 nM; that for “hGH E88pAF (from UniProt P01241 27-217) (ligand)” was 0.9 nM; that for “hGH R134pAF (from UniProt P01241 27-217) (ligand)” was 0.9 nM. The same measure, in the same setting: the value for “hGH N99pAF (from UniProt P01241 27-217) (ligand)” was 8.5 nM.

The target is the same in a further assay.
Experiment: not given
(His)F92pAF-20K (ligand) gave an EC50, STAT5 phosphorylation in IM-9 cells (intracellular phospho-STAT5 staining, FACS, MFI PE) of 4.6 nM. Turning to “hGH F92pAF (from UniProt P01241 27-217) (ligand)”, the EC50, STAT5 phosphorylation in IM-9 cells (intracellular phospho-STAT5 staining, FACS, MFI PE) came out at 0.9 nM.

(His)F92pAF-5K (ligand) returned an EC50, STAT5 phosphorylation in IM-9 cells (intracellular phospho-STAT5 staining, FACS, MFI PE) of 1.5 nM.

In turn, (His)F92-pAF-30K (ligand) returned an EC50, STAT5 phosphorylation in IM-9 cells (intracellular phospho-STAT5 staining, FACS, MFI PE) of 4.1 nM.

The target is the same in a further assay.
Experiment: not given
This is another data set of the same source.
Take “hGH F92pAF (from UniProt P01241 27-217) (ligand)”: the EC50, STAT5 phosphorylation in IM-9 cells (intracellular phospho-STAT5 staining, FACS, MFI PE) was determined as 1.1 nM.
